Reference: US20240343823A1 (Ablynx, published 2024)

How the values were obtained:
[1] = molecular target: T1, Recombinant human GPC4/hFc (R&D Systems, cat no 9195-GP) (human, UniProt O75487 19-529, limits assumed); assay: SPR ProteOn XPR36, GPC4/hFc captured on anti-human IgG1
T1 construct: Bought; not shown: captured with anti-human IgG1
T1 sequence (looked up): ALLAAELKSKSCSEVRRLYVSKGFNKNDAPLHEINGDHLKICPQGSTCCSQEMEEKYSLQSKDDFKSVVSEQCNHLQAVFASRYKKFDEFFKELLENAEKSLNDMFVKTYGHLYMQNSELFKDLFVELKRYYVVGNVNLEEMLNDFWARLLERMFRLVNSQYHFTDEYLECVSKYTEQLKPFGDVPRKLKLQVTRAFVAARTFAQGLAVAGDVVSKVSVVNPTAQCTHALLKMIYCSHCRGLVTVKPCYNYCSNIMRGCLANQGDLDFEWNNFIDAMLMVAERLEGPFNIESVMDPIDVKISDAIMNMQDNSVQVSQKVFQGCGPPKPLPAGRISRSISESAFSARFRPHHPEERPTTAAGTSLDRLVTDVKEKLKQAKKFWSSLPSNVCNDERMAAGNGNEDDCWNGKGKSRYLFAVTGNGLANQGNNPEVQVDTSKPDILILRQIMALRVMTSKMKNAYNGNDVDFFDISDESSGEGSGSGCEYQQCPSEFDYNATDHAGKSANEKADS
Excerpt: Data was double referenced by subtracting a reference ligand lane and a blank buffer injection.

[2] = molecular target: T2, human GPC3 expressed on CHO Flp-In cells (human, UniProt P51654 25-554); assay: flow cytometry on cells expressing GPC3; upper end tied by Table 21 to CHO human GPC3
T2 construct: On cells; Q25-R358, S359-H580; also called hGPC3 CHO; CHO huGPC3

[3] = molecular target: T3, cyno GPC3 expressed on CHO Flp-In cells (cynomolgus); assay: flow cytometry on CHO Flp-In cyno GPC3 cells
T3 construct: range 3-559; On cells; also called cyGPC3 CHO; CHO-cGPC3

[4] = molecular target: T4, recombinant human Glypican-3 (R&D Systems, cat nr. 2119-GP) (human, UniProt P51654 25-559); assay: SPR ProteOn XPR36, GPC3 captured on anti-His antibody, 1:1 model
T4 construct: Bought protein; also called human GPC3; hGPC3
Method: (§1) Recombinant GPC3 proteins were captured on a GLC Sensor Chip (Biorad) immobilized with THE anti-His antibody (Genscript, cat no ABIN387699) via amine coupling, using EDC and NHS chemistry (running buffer: HBS-EP+, pH7.4). Purified ISVDs were injected for 2 minutes (flow rate 45 μL/min) at different concentrations (between 0.3 nM and 1000 nM) and dissociation was followed for 900 s. Regeneration was performed by injecting 10 mM Glycine-HCl (pH 1.5) for 1 minute (flow rate 45 μL/min). Data was double referenced by subtracting a reference ligand lane and a blank buffer injection. Processed sensorgrams were analyzed based on the 1:1 interaction model (Langmuir binding model) using ProteOn Manager 3.1.0 (Version 3.1.0.6) software.

[5] = molecular target: T5, cyno Glypican-3 delta-GPI-HIS, in-house produced (cynomolgus); assay: as above
T5 construct: range 3-559; also called cyno GPC3; cyGPC3
Method: as §1

B1: A022600424 (other)
chain: DVQLVESGGGVVQPGGSLRLSCVASGYVHKINFYGWYRQAPGKEREKVAHISIGDQTDYADSAKGRFTISRDESKNTVYLQMNSLRPEDTAAYYCRALSRIWPYDYWGQGTLVTVSSGGGGSEVQLVESGGGVVQPGGSLRLSCAASGFTFSSFAMTWVRRPPGKGLEWVATITNKGVTSYADSVKGRFTISRDNAKNTLYLQMNSLRPEDTALYICANARRTGPRAPTDIGSYRGQGTLVTVSSGGGGSGGGSEVQLVESGGGVVQPGGSLRLSCAASGSIFRSVFSSSTMEWYRQAPGKKRELVARIAPGEGTYYGALYADSVKGRFTISRDNAKNTVYLQMNSLRPEDTALYYCASGVAWGQGTLVTVSSGGGGSGGGSEVQLVESGGGVVQPGGSLRLSCAASGFTFRSFGMSWVRQAPGKGPEWVSSISGSGSDTLYADSVKGRFTISRDNSKNTLYLQMNSLRPEDTALYYCTIGGSLSRSSQGTLVTVSSA
notes: Trispecific tetravalent ISVD (VHH) T-cell engager: anti-TCR, two anti-GPC3 (biparatopic), anti-albumin; also called TCE01-5GS-A022600351-9GS-A022600314-9GS-ALB23002-A
binding result [1]: no binding (tested: between 4 nM and 1000 nM)
EC50 [2]: 1 to 2 nM
EC50 [3]: 1.11 nM
Kd [4]: < 0.0056 nM
Kd [5]: < 0.0059 nM
